Experimental data published in patent publication US20230192897A1 (NUMAB THERAPEUTICS, published 2023).

B1: PRO1476 (other)
chain: DIQMTQSPSSLSASVGDRVTITCQASQSINNVLAWYQQKPGKAPKLLIYRASTLASGVPSRFSGSGSGTDFTLTISSLQPEDFATYYCQSSYGNYGDFGCGTKVTVLGGGGGSQSQLQESGPGLVKPSETLSLTCKASGFSFSSGYDMCWVRQPPGKGLEWIACVVAGSVDITYYASWAKGRVTISKDSSKNQVSLKLSSVTAADTAVYFCARKDAYSDAFNLWGQGTLVTVSSGGGGSGGGGSGGGGSGGGGSFQLTQSPSSLSASVGDRVTITCQASQSINDYLAWYQQKPGKSPKLLIYKASTLASGVPSRFSGSGSGTDFTLTISSLQPEDFATYYCQQGYIITDIDNVFGTGTKVTVLGGGGGSEVQLVESGGGLVQPGGSLRLSCAASGFSFSNSYWICWVRQAPGKCLEWIGCTFVGSSDSTYYANWAKGRFTISRDNSKNTVYLQMNSLRAEDTAVYYCARHPSDAVYGYANNLWGQGTLVTVSSGGGGSGGGGSIQMTQSPSSLSASVGDRVTITCQSSESVYSNNQLSWYQQKPGQPPKLLIYDASDLASGVPSRFSGSGSGTDFTLTISSLQPEDFATYYCAGGFSSSSDTAFGGGTKLTVLGGGGGSGGGGSGGGGSGGGGSEVQLVESGGGLVQPGGSLRLSCAASGFSLSSNAMGWVRQAPGKGLEYIGIISVGGFTYYASWAKGRFTISRDNSKNTVYLQMNSLRAEDTATYFCARDRHGGDSSGAFYLWGQGTLVTVSS
notes: trispecific scDb-scFv; also called 33-03-G02 sc03 scDb-i/38-02-A04 sc13 scDb-o/19-01-H04 sc03 scFv
B2: PRO1432 (other)
chain: DIQMTQSPSSLSASVGDRVTITCQASQSINNVLAWYQQKPGKAPKLLIYRASTLASGVPSRFSGSGSGTDFTLTISSLQPEDFATYYCQSSYGNYGDFGCGTKVTVLGGGGGSQVQLQESGPGLVKPSETLSLTCKASGFSFSSGYDMCWVRQPPGKGLEWIACVVAGSVDITYYASWAKGRVTISKDSSKNQVSLKLSSVTAADTAVYYCARKDAYSDAFNLWGQGTLVTVSSGGGGSGGGGSGGGGSGGGGSIQMTQSPSSLSASVGDRVTITCQASQSINDYLAWYQQKPGKAPKLLIYKASTLASGVPSRFSGSGSGTDFTLTISSLQPEDFATYYCQQGYIITDIDNVFGTGTKVTVLGGGGGSEVQLVESGGGLVQPGGSLRLSCAASGFSFSNSYWICWVRQAPGKCLEWIGCTFVGSSDSTYYANWAKGRFTISRDNSKNTVYLQMNSLRAEDTAVYYCARHPSDAVYGYANNLWGQGTLVTVSSGGGGSGGGGSIQMTQSPSSLSASVGDRVTITCQSSESVYSNNQLSWYQQKPGQPPKLLIYDASDLASGVPSRFSGSGSGTDFTLTISSLQPEDFATYYCAGGFSSSSDTAFGGGTKLTVLGGGGGSGGGGSGGGGSGGGGSEVQLVESGGGLVQPGGSLRLSCAASGFSLSSNAMGWVRQAPGKGLEYIGIISVGGFTYYASWAKGRFTISRDNSKNTVYLQMNSLRAEDTATYFCARDRHGGDSSGAFYLWGQGTLVTVSS
notes: trispecific scDb-scFv; also called 33-03-G02 sc18 scDb-i/38-02-A04 sc13 scDb-o/19-01-H04 sc03 scFv

Experiments:
[1] = biological target: T1, CD137 on Jurkat NFkB reporter cells (human, UniProt Q07011 24-255); assay: cell-based or functional assay
biotinylated human PDL1 [2] = biological target: T2, biotinylated human PDL1 (human, UniProt Q9NZQ7 19-238, limits assumed, biotinylated); assay: competition ELISA PD-1/PDL1
T2 construct: also called biotinylated PDL1
Procedure: (§1) Plates were blocked for 1 hour at room temperature by adding 300 μl of PBS with i%BSA and 0.2% tween (dilution buffer) to each well. Inhibitors were serially diluted in 3-fold steps to final concentrations ranging from 300 to 0.005 ng/ml in dilution buffer containing 1 ng/ml biotinylated human PDL1. The mixtures were pre-incubated for 1 hour at room temperature under gentle agitation on a rotating mixer (21 rpm) and added to the microplates after 3 wash cycles with 450 μl wash buffer per well. Plates were incubated for 1.5 hours at room temperature under gentle agitation, then 10 ng/ml streptavidin-polyHRP40 was added to each microplate well after three washes with 450 μl of wash buffer per well. After 1 h incubation at RT, plates were washed three times with 450 μl wash buffer and TMB substrate solution was added. The enzymatic reaction was stopped after 6 minutes by addition of 1 M HCl and absorbance was measured at 450 nm using 690 nm as a reference wavelength. For calculation of IC₅₀ values, a four-parameter logistic (4PL) curve fit was performed in Graph Pad Prism using reference subtracted values.

Fc tagged human PDL1 = biological target: T3, Fc tagged human PDL1 (human, UniProt Q9NZQ7 19-239); assay: SPR
T3 construct: Bought (Sino Biological, cat. 10084-H02H); captured on the SPR chip; also called PDL1-Fc chimeric protein
Procedure: (§2) Affinity to PDL1 of the different species was determined by SPR measurements using a Biacore T200 device (GE Healthcare). An antibody specific for the Fc region of human IgGs was immobilized on a sensor chip (CM5 sensor chip, GE Healthcare) by amine-coupling. For all formats, with the exception of the Fc containing Morrison formats, PDL1-Fc chimeric protein from different species were captured by the immobilized antibody.
(§3) Three-fold serial dilutions of the molecules specific for PDL1 (0.12-90 nM) were injected into the flow cells for three minutes and dissociation was monitored for 10 minutes. After each injection cycle, surfaces were regenerated with one injection of a 3 M MgCl₂ solution. The apparent dissociation (kd) and association (kₐ) rate constants and the apparent dissociation equilibrium constant (KD) were calculated using one-to-one Langmuir binding model. Affinity to CD137 of the different species was determined using the identical setup as for PDL1 with the exception that CD137-Fc chimeric protein from different species were captured by the immobilized antibody.

Fc tagged human CD137 = biological target: T4, Fc tagged human CD137 (human, UniProt Q07011 24-186); assay: SPR
T4 construct: also called CD137-Fc chimeric protein
Procedure: as §2, §3

[3] = biological target: T1, CD137 on Jurkat NFkB reporter cells; assay: cell-based or functional assay; remark: listed apart in the source
biotinylated human PDL1 [4] = biological target: T2, biotinylated human PDL1; assay: competition ELISA B7.1/PDL1
Procedure: as §1, with “1% BSA” for “i%BSA”, “Inhibitors were serially diluted in 3-fold steps to final concentrations ranging from 300 to 0.005 ng/ml in dilution buffer containing 1 ng/ml biotinylated human PDL1.” left out

human PDL1 on cells = human PDL1 on cells (human, UniProt Q9NZQ7 19-290); assay: cell-based or functional assay

| Binder | IC50 (ng/ml) (EC50 in Table 16C), NFkB reporter, HCC827 + IFNg, 24 h, +HSA [1] [ng/mL] | rel. IC50 (PRO1186/test), 24 h [1] [fold] | IC50 (biotinylated human PDL1 [2]) [ng/mL] | rel. IC50 (IC50 avelumab/IC50 test) (biotinylated human PDL1 [2]) [fold] | koff (Fc tagged human PDL1) [s⁻¹] | Kd (Fc tagged human CD137) [nM] | koff (Fc tagged human CD137) [s⁻¹] | kon (Fc tagged human CD137) [M⁻¹ s⁻¹] | Area under the curve (calculated using PRO885 normalized data), first line (6 h by the order of the upper part) [3] | Area under the curve (calculated using PRO885 normalized data), second line (24 h by the order of the upper part) [3] | EC50 [ng/ml], NF-kB reporter, HCC827 + IFNg, +HSA, 6 h [3] [ng/mL] | IC10/EC90 ratio, first line (6 h by the order of the upper part) [3] | IC10/EC90 ratio, second line (24 h by the order of the upper part) [3] | Maximum NF-kB activation (rel. to PRO1186) [%], first line (6 h by the order of the upper part) [3] [%] | Maximum NF-kB activation (rel. to PRO1186) [%], second line (24 h by the order of the upper part) [3] [%] | rel. Area under the curve (AUCsample/AUCPRO1186), first line (6 h by the order of the upper part) [3] [fold] | rel. Area under the curve (AUCsample/AUCPRO1186), second line (24 h by the order of the upper part) [3] [fold] | rel. EC50 (EC50, PRO1186/EC50, sample), NF-kB reporter, 6 h [3] [fold] | rel. EC50 (EC50, PRO1186/EC50, sample), NF-kB reporter, 24 h [3] [fold] | rel. IC10/EC90 (ratio of sample/ratio of PRO1186), first line (6 h by the order of the upper part) [3] [fold] | also measured |
| --- | --- | --- | --- | --- | --- | --- | --- | --- | --- | --- | --- | --- | --- | --- | --- | --- | --- | --- | --- | --- | --- |
| B1 | 3.9 | 1.83 | 2.84 | 0.8 | 3.1e-05 | 1.1 | 0.00037 | 350000 | 93.5 | 135 | 5.97 | 34.2 | 35.7 | 36.4 | 76.1 | 0.39 | 0.59 | 2.02 | 1.83 | 2.66 | Kd (Fc tagged human PDL1): 0.009 nM; rel. IC10/EC90 (ratio of sample/ratio of PRO1186), second line (24 h by the order of the upper part) [3]: 1.63 fold; IC50 (biotinylated human PDL1 [4]): 9.49 ng/mL; rel. IC50 (IC50 avelumab/IC50 test) (biotinylated human PDL1 [4]): 1.1 fold; IC50 (ng/ml), NF-AT potency assay, +HSA (human PDL1 on cells): 53.5 ng/mL; rel. IC50 (avelumab/test), +HSA (human PDL1 on cells): 0.66 fold |
| B2 | 21.9 | 0.75 | 3.26 | 0.43 | 4.4e-05 | 0.75 | 0.00045 | 600000 | 111 | 150 | 19.4 | 26.8 | 3.57 | 63.4 | 83.8 | 0.59 | 0.81 | 0.67 | 0.75 | 0.36 | kon (Fc tagged human PDL1): 4.2e+06 M⁻¹ s⁻¹; rel. IC10/EC90 (ratio of sample/ratio of PRO1186), second line (24 h by the order of the upper part) [3]: 0.16 fold; IC50 (biotinylated human PDL1 [4]): 2.83 ng/mL; rel. IC50 (IC50 avelumab/IC50 test) (biotinylated human PDL1 [4]): 0.99 fold; IC50 (ng/ml), NF-AT potency assay, +HSA (human PDL1 on cells): 18.5 ng/mL; rel. IC50 (avelumab/test), +HSA (human PDL1 on cells): 1.98 fold |
